Data reported in the supplement of paper PMC7877785.
± gives the uncertainty stated by the source.

Assay: self-splicing fitness, log relative to wild type (ln ratio); higher = more splicing; Tetrahymena group I intron in knt gene, E. coli kanamycin selection, DiMSum; sequences stand for … in CUCUCU…GGAGGGAAAAGUUAUCAGGCAUGCACCUGGUAGCUAGUCUUUAAACCAAUAGAUUGCAUCGGUUUAAAAGGCAAGACCGUCAAAUUGCGGGAAAGGGGUCAACAGCCGUUCAGUACCAAGUCUCAGGGGAAACUUUGAGAUGGCCUUGCAAAGGGUAUGGUAAUAAGCUGACGGACAUGGUCCUAACCACGCAGCCAAGUCCUAAGUCAACAGAUCUUCUGUUGAUAUGGAUGCAGUUCACAGACUAAAUGUCGGUCGGGGAAGAUGUAUUCUUCUCAUAAGAUAUAGUCGGACCUCUCCUUAAUGGGAGCUAGCGGAUGAAGUGAUGCAACACUGGAGCCGCUGGGAACUAAUUUGUAUGCGAAAGUAUAUUGAUUAGUUUUGGAGUACUCGUGGUCG
Procedure, shortened: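 Pooled colonies went to amplicon sequencing on an Illumina HiSeq 2500 after six replicate transformations. The plates were LB agar with 100 μg/mL carbenicillin, 50 μM IPTG and 0.2% rhamnose, with or without 25 μg/mL kanamycin, incubated overnight at 37°C or 30°C. The E. coli BL21(DE3) library had all eight P1ex-region intron nucleotides randomised, the intron placed in the knt kanamycin-resistance gene on pET-22b(+). DiMSum fitness is the error-weighted combination of replicate fold changes, kanamycin against none, normalised to wild type.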

Sequence | self-splicing fitness (ln) (30 °C) | self-splicing fitness (ln) (37 °C)
AAAUAGCAAUAUUACGAGAU | -2.1 ± 0.16 | -1.47 ± 0.21
AAAUAGCAAUAUUACGAGGG | -3.73 ± 0.19 | -3.61 ± 0.22
AAAUAGCAAUAUUACGAGGU | -2.99 ± 0.26 | -1.28 ± 0.19
AAAUAGCAAUAUUACGAUCC | -0.358 ± 0.14 | -0.695 ± 0.17
AAAUAGCAAUAUUACGAUCG | -0.864 ± 0.091 | -0.18 ± 0.11
AAAUAGCAAUAUUACGAUGA | -0.773 ± 0.096 | -0.0131 ± 0.11
AAAUAGCAAUAUUACGCCCU | 0.528 ± 0.16 | 0.336 ± 0.21
AAAUAGCAAUAUUACGCGCC | -0.57 ± 0.13 | -0.337 ± 0.15
AAAUAGCAAUAUUACGCUAU | -2.9 ± 0.18 | -2.22 ± 0.34
AAAUAGCAAUAUUACGCUUU | -2.63 ± 0.15 | -1.09 ± 0.12
AAAUAGCAAUAUUACGGACA | -1.08 ± 0.12 | -0.512 ± 0.13
AAAUAGCAAUAUUACGGCUA | -0.705 ± 0.12 | -0.0895 ± 0.13
AAAUAGCAAUAUUACGGGCA | -1.22 ± 0.11 | -0.312 ± 0.14
AAAUAGCAAUAUUACGGGGG | -2.94 ± 0.36 | -2.11 ± 0.31
AAAUAGCAAUAUUACGGGUC | -3.56 ± 0.17 | -3.1 ± 0.24
AAAUAGCAAUAUUACGGGUU | -1.92 ± 0.14 | -0.924 ± 0.2
AAAUAGCAAUAUUACGGUAU | -1.69 ± 0.1 | -0.496 ± 0.12
AAAUAGCAAUAUUACGGUCU | 0.108 ± 0.076 | -0.388 ± 0.084
AAAUAGCAAUAUUACGUAAC | -2.1 ± 0.2 | -0.398 ± 0.2
AAAUAGCAAUAUUACGUCGA | -1.78 ± 0.078 | -0.255 ± 0.076
AAAUAGCAAUAUUACGUUAC | -3.44 ± 0.22 | -2.77 ± 0.27
AACAAGCAAUAUUACGAAAG | -2.14 ± 0.14 | -2.73 ± 0.22
AACAAGCAAUAUUACGAAUC | -3.22 ± 0.17 | -2.24 ± 0.13
AACAAGCAAUAUUACGACAC | -1.66 ± 0.085 | -0.431 ± 0.097

Sequence | self-splicing fitness (ln) (30 °C) | self-splicing fitness (ln) (37 °C)
AACAAGCAAUAUUACGACCA | -0.617 ± 0.086 | -0.382 ± 0.12
AACAAGCAAUAUUACGAGCU | -0.919 ± 0.056 | -0.357 ± 0.073
AACAAGCAAUAUUACGAUUU | 0.129 ± 0.056 | 0.672 ± 0.077
AACAAGCAAUAUUACGCGAA | -1.78 ± 0.073 | -0.546 ± 0.084
AACAAGCAAUAUUACGCUAC | – | -3.21 ± 0.4
AACAAGCAAUAUUACGCUCA | -0.608 ± 0.054 | -0.27 ± 0.071
AACAAGCAAUAUUACGGCGU | -0.173 ± 0.063 | 0.163 ± 0.071
AACAAGCAAUAUUACGGGGA | -3.21 ± 0.14 | -0.987 ± 0.087
AACAAGCAAUAUUACGGUCU | -0.114 ± 0.037 | 0.456 ± 0.054
AACAAGCAAUAUUACGUAUU | -1.77 ± 0.079 | -0.983 ± 0.092
AACAAGCAAUAUUACGUCGU | -2.18 ± 0.068 | -0.677 ± 0.067
AACAAGCAAUAUUACGUUAC | -3.54 ± 0.11 | -3.01 ± 0.18
AACCAGCAAUAUUACGAACC | -0.246 ± 0.13 | 0.00425 ± 0.19
AACCAGCAAUAUUACGACGU | -0.111 ± 0.046 | 0.409 ± 0.06
AACCAGCAAUAUUACGAGAA | -1.71 ± 0.14 | -1.02 ± 0.13
AACCAGCAAUAUUACGCAAG | -2.54 ± 0.1 | -1 ± 0.1
AACCAGCAAUAUUACGCACA | -0.335 ± 0.054 | 0.326 ± 0.072
AACCAGCAAUAUUACGCCUG | -1.8 ± 0.066 | -0.745 ± 0.087
AACCAGCAAUAUUACGCGAA | -1.11 ± 0.06 | -0.99 ± 0.076
AACCAGCAAUAUUACGCGCG | -0.385 ± 0.082 | 0.256 ± 0.11
AACCAGCAAUAUUACGCUAA | -1.36 ± 0.068 | -0.61 ± 0.07
AACCAGCAAUAUUACGCUAC | -2.63 ± 0.14 | -2.05 ± 0.13
AACCAGCAAUAUUACGCUAU | -2.11 ± 0.094 | -0.398 ± 0.093
